Counter-ions that a name gives are not always drawn. Like-named read-outs stand apart in the source and are kept apart here.
Assays:
factor IIa = factor IIa (Homo sapiens, UniProt P00734); test: In vitro amidolytic anti-factor IIa activity in human plasma (S2238); format: biochemical; settings: human plasma pH 7.4, substrate S2238; read-out: Anti-IIa Human plasma pH 7.4 IC-50
Method: (§1) In Vitro Test for Determination of the Anti-Factor Xa and Factor IIa Activity in Human Plasma The anti-factor Xa and IIa activity of the tested compounds in human plasma were measured amidolytically using S2222 or S2238 (Chromogenix, Chromogenics Ltd, Molndal, Sweden) as substrates, respectively. The protcols were based on the method described by Teien and Lie. (Teien A N, Lie M. Evaluation of an amidolytic heparin assay method increased sensitivity by adding purified antithrombin III. Thromb. Res. 1977, 10: 399-410). Both activities are expressed in IC-50 (Mol/L).

[1] = Pharmacokinetics after s.c. administration in rats; format: in vivo, male Wistar rats; settings: rat, 100 nmol/kg s.c.; for AUC(0-inf) / MRT / Tmax / half-life / Cmax: male, Wistar, sc; for AUC(0-inf) / MRT / Tmax / half-life: plasma, 100 nmol/kg; for AUC(0-inf) / MRT / Tmax / half-life / Cmax / Cl / Vz: mean ± s.e.m.; for AUC(0-inf) / MRT / Tmax / Cmax / Cl / Vz: n = 3; for half-life: n = 3, read-out: T½ eli (converted); for pharmacokinetic behavior in rats, compound III compared with Org 42675: within the variability of the experiment
Method: 3.1 Pharmacokinetics The pharmacokinetic properties of Org 42675 and of compound III of this invention were studied in male Wistar rats of 300-400 gr. The rats were anaesthetized by inhalation of a mixture of O2/N2O/isoflurane, after which the right jugular vein was cannulated. The next day rats were treated s.c. with doses of 100 nmol/kg. After s.c. administration, blood was sampled at several time intervals. Then the blood was centrifuged after which the plasma was siphoned off and stored at −20° C. until use. The concentration of the tested compound was measured amidolytically using S-2222 or S-2238 as substrates (Chromogenix, Chromogenics Ltd, Molndal, Sweden) to determine the anti-Xa or anti-IIa activity, respectively. Both procedures were based on the methods of Teien and Lie (Teien A N, Lie M. Evaluation of an amidolytic heparin assay method increased sensitivity by adding purified antithrombin III. Thromb. Res. 1977, 10: 399-410). The concentrations in the obtained plasma samples were determined against a calibration curve which was made of the stock solution of the tested compound itself. The concentration in the samples was expressed in nmol/mL and the kinetic parameters were calculated with the noncompartment model of WinNonlin. (see FIG. 1)

[2] = Pharmacokinetics - neutralization experiment with avidin in rats; format: in vivo; settings: rat, 100 nmol/kg s.c.
Method: 3.2 Pharmacokinetics—Neutralization Experiment:
Rats were treated with compound III of this invention, or Org 42675 at a dose of 100 nmol/kg s.c. At t=2 h, a blood sample was taken and 10 mg/kg of Avidin (from egg white, Sigma) was administered i.v. to the rats treated with compound III of this invention or Org 42675. Blood was sampled at 0.17, 0.5, 1, 2, 3, and 7 hours subsequently. The blood was treated as described in the pharmacokinetic experiment and the concentration of the samples was determined by measuring the (residual) anti-Xa or anti-IIa activity. (see FIG. 2)

factor Xa = test: In vitro amidolytic anti-factor Xa activity in human plasma (S2222); format: biochemical; settings: human plasma pH 7.4, substrate S2222; read-out: Anti-Xa Human plasma pH 7.4 IC-50
Method: as §1

[3] = in vivo; cited from earlier work
[4] = experimental thrombosis; cited from earlier work
[5] = plasma level by anti-IIa activity
[6] = plasma level by anti_Xa activity

Row | SMILES | IC50 (factor IIa) [nM] | AUC(0-inf) [1, 6] [µM·h] | MRT [1, 6] [h] | Tmax [1, 6] [h] | half-life [1, 6] [h] | Cmax [1, 6] [nM] | Cl [1, 6] [mL/min/kg] | Vz [1, 6] [L/kg] | pharmacokinetic behavior in rats, compound III compared with Org 42675 [1] | IC50 (factor Xa) [nM] | also measured
1 | COc1cc(C)c(S(=O)(=O)N[C@@H](CC(=O)NCCCC(=O)N[C@@H](CCCCNC(=O)CCCC[C@@H]2SC[C@@H]3NC(=O)N[C@@H]32)C(=O)NCCOCCOCCOCCO[C@H]2[C@H](OC)[C@@H](OC)[C@@H](O[C@H]3[C@H](OC)[C@@H](OC)[C@H](O[C@H]4[C@H](OS(=O)(=O)O)[C@@H](OS(=O)(=O)O)[C@@H](O[C@H]5[C@H](OC)[C@@H](OC)[C@H](O[C@H]6[C@H](OC)[C@@H](OS(=O)(=O)O)[C@@H](OC)O[C@@H]6COS(=O)(=O)O)O[C@H]5C(=O)O)O[C@@H]4COS(=O)(=O)O)O[C@@H]3C(=O)O)O[C@@H]2COS(=O)(=O)O)C(=O)N[C@H](Cc2ccc(C(=N)N)cc2)C(=O)N2CCCCC2)c(C)c1C [Compound III, sodium salt] | 16.2 | 7.2 ± 0.2 | 5.9 ± 0.5 | 1.2 ± 0.4 | 3.9 ± 0.3 | 1100 ± 100 | 0.232 ± 0.0067 | 0.078 ± 0.0046 | the same pharmacokinetic behavior | 0.843 | AUC(0-inf) [1, 5]: 5 ± 0.6 µM·h; MRT [1, 5]: 4.3 ± 0.3 h; Tmax [1, 5]: 1.5 ± 0.5 h; half-life [1, 5]: 2.7 ± 0.5 h; Cl [1, 5]: 0.343 ± 0.04 mL/min/kg; Vz [1, 5]: 0.078 ± 0.0042 L/kg; neutralization of antithrombotic activity ((residual) anti-Xa and anti-IIa activity) by avidin ([2]; avidin 10 mg/kg i.v.): can be neutralized
2 | COc1cc(C)c(S(=O)(=O)N[C@@H](CC(=O)NCCCC(=O)NCCOCCOCCOCCO[C@H]2[C@H](OC)[C@@H](OC)[C@@H](O[C@H]3[C@H](OC)[C@@H](OC)[C@H](O[C@H]4[C@H](OS(=O)(=O)O)[C@@H](OS(=O)(=O)O)[C@@H](O[C@H]5[C@H](OC)[C@@H](OC)[C@H](O[C@H]6[C@H](OC)[C@@H](OS(=O)(=O)O)[C@@H](OC)O[C@@H]6COS(=O)(=O)O)O[C@H]5C(=O)O)O[C@@H]4COS(=O)(=O)O)O[C@@H]3C(=O)O)O[C@@H]2COS(=O)(=O)O)C(=O)N[C@H](Cc2ccc(C(=N)N)cc2)C(=O)N2CCCCC2)c(C)c1C [Org 42675, reference compound] | 17.8 | 5.3 ± 0.3 | 4.6 ± 0.2 | 2.3 ± 0.2 | 2.7 ± 0.2 | 1000 ± 20 | 0.318 ± 0.0183 | 0.074 ± 0.0045 | the same pharmacokinetic behavior | 0.767 | AUC(0-inf) ([2]; Wistar, plasma, subcutaneous, avidin 10 mg/kg i.v. at t = 2 h, calculated from T = 2 h, anti_Xa activity, mean ± s.e.m., n = 3): 4.8 ± 0.6 µM·h; pharmacokinetic behavior on addition of avidin ([2]; avidin 10 mg/kg i.v. at t = 2 h): not affected; prolonged half-life in comparison to the corresponding non-conjugated direct thrombin inhibitor derived from NAPAP [3]: 10 fold; efficacy in comparison with argatroban, heparin and fondaparinux [4]: improved efficacy
